Drawing on paper PMC9851726, this text covers IC50 of inhibition of normal human serum-induced hemolysis of rabbit erythrocytes, ORF8 39 nM to 5000 nM for one substance.

The target in the test is human complement C3b (human) (UniProt P01024).
Sequence of UniProt P01024 (P01024 23-667, chain 1 of 2): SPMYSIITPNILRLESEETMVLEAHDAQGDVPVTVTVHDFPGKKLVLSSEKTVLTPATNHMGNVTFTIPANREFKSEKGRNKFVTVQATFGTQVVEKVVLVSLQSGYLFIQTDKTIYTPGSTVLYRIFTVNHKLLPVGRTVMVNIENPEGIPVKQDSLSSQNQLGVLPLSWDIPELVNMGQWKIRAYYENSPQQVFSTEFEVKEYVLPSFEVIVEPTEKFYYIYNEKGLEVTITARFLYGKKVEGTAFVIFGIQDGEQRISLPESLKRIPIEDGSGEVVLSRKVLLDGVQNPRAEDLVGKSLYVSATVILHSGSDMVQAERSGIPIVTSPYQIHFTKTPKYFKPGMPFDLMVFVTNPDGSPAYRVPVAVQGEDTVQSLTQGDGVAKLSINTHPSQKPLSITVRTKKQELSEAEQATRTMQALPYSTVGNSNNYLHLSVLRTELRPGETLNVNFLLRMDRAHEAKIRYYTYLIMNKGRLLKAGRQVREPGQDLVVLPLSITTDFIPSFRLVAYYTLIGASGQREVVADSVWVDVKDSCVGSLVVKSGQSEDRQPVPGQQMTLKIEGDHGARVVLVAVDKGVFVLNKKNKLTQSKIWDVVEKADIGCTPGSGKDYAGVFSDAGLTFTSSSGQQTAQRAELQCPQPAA
Sequence of UniProt P01024 (P01024 749-1663, chain 2 of 2): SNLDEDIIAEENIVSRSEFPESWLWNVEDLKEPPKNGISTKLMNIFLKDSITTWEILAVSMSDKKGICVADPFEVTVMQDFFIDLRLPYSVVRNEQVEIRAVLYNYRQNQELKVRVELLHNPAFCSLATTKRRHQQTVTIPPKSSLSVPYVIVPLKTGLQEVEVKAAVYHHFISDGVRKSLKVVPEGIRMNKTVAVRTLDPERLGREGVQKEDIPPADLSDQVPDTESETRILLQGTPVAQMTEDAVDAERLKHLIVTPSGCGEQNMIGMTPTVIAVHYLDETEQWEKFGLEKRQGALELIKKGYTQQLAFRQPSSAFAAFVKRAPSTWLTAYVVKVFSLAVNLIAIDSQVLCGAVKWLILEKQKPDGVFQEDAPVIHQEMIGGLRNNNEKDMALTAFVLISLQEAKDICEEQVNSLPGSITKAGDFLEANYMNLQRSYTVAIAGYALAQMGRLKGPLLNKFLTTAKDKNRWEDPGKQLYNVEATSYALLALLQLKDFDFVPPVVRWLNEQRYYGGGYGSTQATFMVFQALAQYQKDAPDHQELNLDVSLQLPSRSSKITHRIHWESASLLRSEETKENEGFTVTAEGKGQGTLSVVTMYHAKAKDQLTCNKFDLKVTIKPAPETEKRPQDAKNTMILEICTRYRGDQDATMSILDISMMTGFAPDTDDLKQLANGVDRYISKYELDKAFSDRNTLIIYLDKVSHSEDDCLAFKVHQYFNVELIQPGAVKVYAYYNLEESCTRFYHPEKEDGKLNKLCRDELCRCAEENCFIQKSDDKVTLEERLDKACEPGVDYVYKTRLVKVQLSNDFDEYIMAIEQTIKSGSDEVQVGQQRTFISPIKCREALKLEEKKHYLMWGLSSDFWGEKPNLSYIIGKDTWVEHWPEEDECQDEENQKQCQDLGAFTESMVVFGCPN

The substance “recombinant SARS-CoV-2 ORF8 protein, His-tagged (from UniProt P0DTC8 18-121) (natural protein)” yielded an IC50 of inhibition of normal human serum-induced hemolysis of rabbit erythrocytes, ORF8 39 nM to 5000 nM of 2.3 µM.
